For data set [1], the target named is T1, von Willebrand factor (VWF) (Homo sapiens, UniProt P04275 P04275:764-2813). Kind of data set: filter; buffer F, 150 mM NaCl, 2 mM CaCl2, 37 C; Bmax 61%. Particulars: tags: Haematologic Technologies Inc. (factor VIII free); label: 5'-32P. The method, then: Dissociation constants (Kd) of each truncate were determined using double-filter nitrocellulose filter binding assays (Pergolizzi et al, Blood 108:862-869 (2006)). All binding studies were performed in binding buffer F (20 mM HEPES, pH 7.4, 150 mM NaCl, 2 mM CaCl₂, and 0.1% BSA) at 37° C. Human purified VWF (with factor VIII and factor VIII free) was purchased from Haematologic Technologies Inc. (Essex Junction, VT) and used in the double-filter nitrocellulose filter binding assay to determine the Kd of individual clones. Briefly, RNA was dephosphorylated using bacterial alkaline phosphatase (Gibco BRL, Gaithberg, Md.) and end-labeled at the 5′ end with T4 polynucleotide kinase (New England Biolabs, Beverly, Mass.) and [γ³²P] ATP (Amersham Pharmacia Biotech, Piscataway, N.J.). Direct binding was performed by incubating ³²P—RNA with VWF in physiological buffer+1 mg/ml BSA at 37° C. for 5 min. The fraction of the nucleic acid-protein complex which bound to the nitrocellulose membrane was quantified with a phosphoimager (Molecular Dynamics, Sunnyvale, Calif.).

For data set [2], the target named is VWF SPI fragment (V8 protease; C-terminal 455 residues of SPIII) (UniProt P04275 P04275:1674-2128). The experiment in a line: filter; 37 C, 2 mM CaCl2. Particulars: label: 5'-32P. As to the method: (§1) Affinity constants (Kd values) were determined using double-filter nitrocellulose filter binding assays (Rusconi et al, Thromb. Haemost. 84:841-848 (2000)). All binding studies were performed in either binding buffer E (20 mM HEPES, pH 7.4, 50 mM NaCl, 2 mM CaCl₂, and 0.1% BSA) or binding buffer F (20 mM HEPES, pH 7.4, 150 mM NaCl, 2 mM CaCl₂, and 0.1% BSA) at 37° C. Human purified VWF (factor VIII free) was purchased from Haematologic Technologies Inc. (Essex Junction, VT) and used in the double-filter nitrocellulose filter binding assay to determine the Kd of every other round and individual clones. VWF SPI and VWF SPIII domains were kindly provided by Dr. J. Evan Sadler (Washington University in St. Louis). Briefly, RNA were dephosphorylated using bacterial alkaline phosphatase (Gibco BRL, Gaithberg, Md.) and end-labeled at the 5′ end with T4 polynucleotide kinase (New England Biolabs, Beverly, Mass.) and [γ³²P] ATP (Amersham Pharmacia Biotech, Piscataway, N.J.) (Fitzwater and Polisky, Methods Enzymol. 267:275-301 (1996)). Direct binding was performed by incubating ³²P-RNA with VWF in physiological buffer+1 mg/ml BSA at 37° C. for 5 min. The fraction of the nucleic acid-protein complex which bound to the nitrocellulose membrane was quantified with a posphoimager (Molecular Dynamics, Sunnyvale, Calif.).

The target in data set [3] is T1, von Willebrand factor (VWF). Kind of data set: filter; nitrocellulose filter binding, 37 C, 2 mM CaCl2. Particulars: tags: Haematologic Technologies Inc. (factor VIII free); label: 5'-32P. The method, then: as §1
Data set [4] deals with T2, glycoprotein IIb/IIIa on activated platelets (Homo sapiens, UniProt P08514;P08514;P05106 P08514:32-887,P08514:891-1039,P05106:27-788). Kind of data set: filter; apparent Kd on activated platelets, 37 C. Conditions: label: 5'-32P. The method, then: (§2) In order to correlate the real-time data with binding affinity, purified 11D platelets were isolated and the affinity of each round to activated platelets was measured using nitrocellulose-filter partitioning (Wang et al, Biochemistry 32:1899-1904 (1993)). Since purified gpIIb/IIIa were selected, 80,000 gpIIb/IIIa receptors per platelet were assumed (Tcheng, Am. Heart J. 139:S38-45 (2000)) and the theoretical concentration of the protein was calculated.
(§3) Representative clones from each family were subsequently tested for their ability to bind to purified platelets.

In data set [5] the target is T2, glycoprotein IIb/IIIa on activated …. The experiment in a line: filter; apparent Kd on activated platelets, poorest binder. Conditions: label: 5'-32P. The method, then: as §2, §3

B1: 9.14 T10 (ssRNA)
RNA: GGGAGGUGGACGAACUGCCCUCAGCUACUUUCAUGUUGCUGACGCACAGACGACUCGCUG
modifications: 2'-F pyrimidines
B1: the Kd in data set [1] was determined as 44 nM.

B2: VWF R9.14 (ssRNA)
RNA: GGGAGGACGAUGCGGUGGACGAACUGCCCUCAGCUACUUUCAUGUUGCUGACGCACAGACGACUCGCUGAGGAUCCGAGA
modifications: 2'-F pyrimidines
Regarding B2, the binding result in data set [2] is recorded as “no binding”. This molecule came in with a Kd in data set [3] of 12 nM.

B3: C1 (ssRNA)
RNA: GGGAGGACGAUGCGGUAUAGACCACAGCCUGAGUAUUAACCACCAACCCAGGUACUCAGACGACUCGCUGAGGAUCC
modifications: 2'-F pyrimidines
Turning to B3, the Kd in data set [4] was determined as 6 nM.

B4: C3 (ssRNA)
RNA: GGGAGGACGAUGCGGUGCCACAUGCCUCAGAUACAGCACGCACCUUCGACCUAAUCAGACGACUCGCUGAGGAUCC
modifications: 2'-F pyrimidines
Take B4: in data set [5], the Kd came to 62 nM.

(Values after patent US20120264815, “REVERSIBLE PLATELET INHIBITION” (DUKE UNIVERSITY, published 2012).)
